According to article PMC10786891, “Massively parallel profiling of RNA-targeting CRISPR-Cas13d”:
Substitutions are numbered along the chain they refer to. Numbers in names are those of the source.

B1: target 1 insA 3' of 22,insG 3' of 2 (mixed)
RNA 1: CACCCGUGCAAAAAUGCAGGGGUCUAAAACUGAGCGGAUAACCUCUCUAUGG
RNA 2: GGGAAUGGAUCCACAUCUACGAAUUCGUACACAUAGAGAGGUUAUCCGCUCGACCGAGAUCGGAAGAGCACACGU
B2: target 1 insU 3' of 12,insU 3' of 2 (mixed)
RNA 1: B1 RNA 1
RNA 2: GGGAAUGGAUCCACAUCUACGAAUUCGUACCAUAGAGAGGUUUAUCCGCUCUACCGAGAUCGGAAGAGCACACGU
B3: target 1 insC 3' of 22,insU 3' of 18 (mixed)
RNA 1: B1 RNA 1
RNA 2: GGGAAUGGAUCCACAUCUACGAAUUCGUACCCAUAUGAGAGGUUAUCCGCUCACCGAGAUCGGAAGAGCACACGU
B4: target 1 insG 3' of 19,insG 3' of 16 (mixed)
RNA 1: B1 RNA 1
RNA 2: B3 RNA 2 with C32A, A33U, U34G, U36G, G37A, A38G
B5: target 1 insG 3' of 21,insA 3' of 21 (mixed)
RNA 1: B1 RNA 1
RNA 2: B3 RNA 2 with C32G, U34A, A35U, U36A
B6: target 1 C7U,A16C (mixed)
RNA 1: B1 RNA 1
RNA 2: GGGAAUGGAUCCACAUCUACGAAUUCGUACCAUAGCGAGGUUAUUCGCUCACCGAGAUCGGAAGAGCACACGU
B7: target 1 insA 3' of 21,insC 3' of 15 (mixed)
RNA 1: B1 RNA 1
RNA 2: B3 RNA 2 with C32A, U36G, G37A, A38G, G39C
B8: target 1 insU 3' of 9 (mixed)
RNA 1: B1 RNA 1
RNA 2: GGGAAUGGAUCCACAUCUACGAAUUCGUACCAUAGAGAGGUUAUUCCGCUCACCGAGAUCGGAAGAGCACACGU
B9: target 1 insA 3' of 7,insU 3' of 2 (mixed)
RNA 1: B1 RNA 1
RNA 2: B2 RNA 2 with U43A, A44U, U45C, C46A
B10: target 1 U8G,A9U (mixed)
RNA 1: B1 RNA 1
RNA 2: B6 RNA 2 with C36A, A43U, U44G, U45C
B11: target 1 insC 3' of 5,insG 3' of 2 (mixed)
RNA 1: B1 RNA 1
RNA 2: B2 RNA 2 with U43A, A44U, U45C, C47G, G48C, U52G
B12: target 1 insU 3' of 18 (mixed)
RNA 1: B1 RNA 1
RNA 2: B8 RNA 2 with G35U, A36G, G37A, A38G, G39A, U41G, A43U, U44A
B13: target 1 U3G,U11G (mixed)
RNA 1: B1 RNA 1
RNA 2: B6 RNA 2 with C36A, U41G, U45C, U49G
B14: target 1 insA 3' of 17,insA 3' of 10 (mixed)
RNA 1: B1 RNA 1
RNA 2: GGGAAUGGAUCCACAUCUACGAAUUCGUACCAUAGAAGAGGUUAAUCCGCUCACCGAGAUCGGAAGAGCACACGU
B15: target 1 insG 3' of 11,insU 3' of 2 (mixed)
RNA 1: B1 RNA 1
RNA 2: B2 RNA 2 with U42G
B16: target 1 U8A,A18G (mixed)
RNA 1: B1 RNA 1
RNA 2: B6 RNA 2 with A34G, C36A, U44A, U45C
B17: target 1 insC 3' of 12,insA 3' of 4 (mixed)
RNA 1: B1 RNA 1
RNA 2: B2 RNA 2 with U41C, U50A, C51U, U52C
B18: target 1 insG 3' of 8,insG 3' of 3 (mixed)
RNA 1: B1 RNA 1
RNA 2: B2 RNA 2 with U43A, A44U, U45G, C51G, U52C
B19: target 1 A9G,U19A (mixed)
RNA 1: B1 RNA 1
RNA 2: B6 RNA 2 with U33A, C36A, A43G, U45C
B20: target 1 C6A,G12C (mixed)
RNA 1: B1 RNA 1
RNA 2: B6 RNA 2 with C36A, G40C, U45C, C46A
B21: target 1 insC 3' of 22,insC 3' of 9 (mixed)
RNA 1: B1 RNA 1
RNA 2: B14 RNA 2 with A32C, U33A, A34U, G35A, A36G, A45C
B22: target 1 U3C,A14G (mixed)
RNA 1: B1 RNA 1
RNA 2: B6 RNA 2 with C36A, A38G, U45C, U49C
B23: target 1 C2U,A9C (mixed)
RNA 1: B1 RNA 1
RNA 2: B6 RNA 2 with C36A, A43C, U45C, C50U
B24: target 1 insG 3' of 22,insU 3' of 4 (mixed)
RNA 1: B1 RNA 1
RNA 2: B1 RNA 2 with A31G, C51U, G52C
B25: target 1 insA 3' of 22,insA 3' of 11 (mixed)
RNA 1: B1 RNA 1
RNA 2: B14 RNA 2 with C31A, A32C, U33A, A34U, G35A, A36G, U43A, A44U
B26: target 1 insA 3' of 10 (mixed)
RNA 1: B1 RNA 1
RNA 2: B8 RNA 2 with U44A
B27: target 1 G5C,U8G (mixed)
RNA 1: B1 RNA 1
RNA 2: B6 RNA 2 with C36A, U44G, U45C, G47C
B28: target 1 insA 3' of 12,insA 3' of 6 (mixed)
RNA 1: B1 RNA 1
RNA 2: B2 RNA 2 with U41A, G48A, C49G, U50C, C51U, U52C
B29: target 1 G12C,G15U (mixed)
RNA 1: B1 RNA 1
RNA 2: B6 RNA 2 with C36A, G37U, G40C, U45C
B30: target 1 insG 3' of 10,insC 3' of 3 (mixed)
RNA 1: B1 RNA 1
RNA 2: B2 RNA 2 with U43G, U52C
B31: target 1 insC 3' of 13,insG 3' of 8 (mixed)
RNA 1: B1 RNA 1
RNA 2: B14 RNA 2 with A37G, G38A, A39G, G40C, A45U, U46G
B32: target 1 insU 3' of 22,insG 3' of 19 (mixed)
RNA 1: B1 RNA 1
RNA 2: B3 RNA 2 with C31U, A35G, U36A
B33: target 1 insA 3' of 19,insG 3' of 14 (mixed)
RNA 1: B1 RNA 1
RNA 2: B14 RNA 2 with G35A, A36G, U42G, A44U

The binders below were run against T1, EsCas13d, nuclease-dead (Eubacterium siraeum, UniProt B0MS50, R295A;H300A;R849A;H854A) (assay: crRNA (strand 1, pre-loaded); Mg2+; 40 mM Tris-HCl pH 7.5, 150 mM NaCl, 6 mM MgCl2, 1 mM DTT, 0.1% Tween-20, 0.2 mg/ml BSA; 25 C; 10 min per concentration, then washed). Details: tags: His6-TwinStrep-SUMO cleaved; N-terminal SNAP kept (SNAP-Surface 488); label: 3' end held by stalled T7 RNA polymerase.
T1 sequence: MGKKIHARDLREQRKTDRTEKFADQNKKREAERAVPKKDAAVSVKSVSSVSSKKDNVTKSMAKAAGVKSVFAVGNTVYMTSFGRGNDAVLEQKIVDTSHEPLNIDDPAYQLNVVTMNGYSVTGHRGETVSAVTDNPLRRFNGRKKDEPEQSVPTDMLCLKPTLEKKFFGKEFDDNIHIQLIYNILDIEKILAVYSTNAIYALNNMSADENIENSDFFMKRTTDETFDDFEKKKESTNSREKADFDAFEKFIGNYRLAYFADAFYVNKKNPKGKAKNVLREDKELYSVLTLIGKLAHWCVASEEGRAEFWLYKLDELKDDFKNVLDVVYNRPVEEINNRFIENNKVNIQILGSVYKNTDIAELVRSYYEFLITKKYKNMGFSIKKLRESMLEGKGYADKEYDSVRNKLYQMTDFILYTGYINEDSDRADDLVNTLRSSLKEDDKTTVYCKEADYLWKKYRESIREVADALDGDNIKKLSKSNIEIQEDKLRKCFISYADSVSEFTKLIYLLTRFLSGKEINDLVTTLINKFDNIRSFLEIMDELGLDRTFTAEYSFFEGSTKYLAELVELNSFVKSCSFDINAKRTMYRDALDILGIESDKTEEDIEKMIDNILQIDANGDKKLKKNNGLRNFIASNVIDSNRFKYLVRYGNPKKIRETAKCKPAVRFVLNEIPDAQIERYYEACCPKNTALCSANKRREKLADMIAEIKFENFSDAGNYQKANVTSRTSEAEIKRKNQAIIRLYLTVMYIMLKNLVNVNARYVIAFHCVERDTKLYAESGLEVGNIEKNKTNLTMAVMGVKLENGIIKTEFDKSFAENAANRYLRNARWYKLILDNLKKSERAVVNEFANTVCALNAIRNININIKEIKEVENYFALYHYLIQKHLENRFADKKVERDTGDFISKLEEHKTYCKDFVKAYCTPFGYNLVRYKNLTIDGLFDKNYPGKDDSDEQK

Question: With B1 as the binder, how does the Kd read?
Answer: 12.2 ± 0.9 nM

Question: For B2, which Kd is on record?
Answer: 8.3 ± 0.8 nM

Question: With B3 as the binder, how does the Kd read?
Answer: 38 ± 9 nM

Question: Which Kd does the source give for B4 here?
Answer: 97 ± 16 nM

Question: For B5, which Kd is on record?
Answer: 27.3 ± 3.5 nM

Question: B6 was tested. Which Kd did it give?
Answer: 43 ± 4 nM

Question: Which Kd does the source give for B7 here?
Answer: 55 ± 11 nM

Question: How did the Kd turn out when B8 was run?
Answer: 13.1 ± 0.9 nM

Question: Which Kd does the source give for B9 here?
Answer: 7.5 ± 0.6 nM

Question: B10 was tested. Which Kd did it give?
Answer: 11.4 ± 0.4 nM

Question: How did the Kd turn out when B11 was run?
Answer: 10 ± 0.5 nM

Question: With B12 as the binder, how does the Kd read?
Answer: 31 ± 3.2 nM

Question: B13 was tested. Which Kd did it give?
Answer: 11.7 ± 0.9 nM

Question: With B14 as the binder, how does the Kd read?
Answer: 19.2 ± 1.7 nM

Question: How did the Kd turn out when B15 was run?
Answer: 50 ± 9 nM

Question: How did the Kd turn out when B16 was run?
Answer: 72 ± 16 nM

Question: How did the Kd turn out when B17 was run?
Answer: 7 ± 0.7 nM

Question: How did the Kd turn out when B18 was run?
Answer: 7.7 ± 0.4 nM

Question: How did the Kd turn out when B19 was run?
Answer: 44 ± 5 nM

Question: For B20, which Kd is on record?
Answer: 14.8 ± 0.5 nM

Question: For B21, which Kd is on record?
Answer: 50 ± 13 nM

Question: For B22, which Kd is on record?
Answer: 57 ± 18 nM

Question: With B23 as the binder, how does the Kd read?
Answer: 14.2 ± 0.5 nM

Question: B24 was tested. Which Kd did it give?
Answer: 32 ± 5 nM

Question: Which Kd does the source give for B25 here?
Answer: 17.6 ± 1 nM

Question: For B26, which Kd is on record?
Answer: 12 ± 0.5 nM

Question: B27 was tested. Which Kd did it give?
Answer: 35 ± 4 nM

Question: B28 was tested. Which Kd did it give?
Answer: 37.3 ± 3 nM

Question: For B29, which Kd is on record?
Answer: ~60 nM

Question: B30 was tested. Which Kd did it give?
Answer: 26.7 ± 1.9 nM

Question: How did the Kd turn out when B31 was run?
Answer: 13.9 ± 1.5 nM

Question: With B32 as the binder, how does the Kd read?
Answer: 86 ± 19 nM

Question: B33 was tested. Which Kd did it give?
Answer: 28.6 ± 1.5 nM
